B1: human NKG2D (receptor)
chain: IPLTESYCGPCPKNWICYKNNCYQFFDESKNWYESQASCMSQNASLLKVYSKEDQDLLKLVKSYHWMGLVHIPTNGSWQWEDGSILSPNLLTIIEMQKGDCALYASSFKGYIENCSTPNTYICMQRTV
B2: KYK-1 antibody (antibody, V domains shown)
VH: EVQLVESGGGVVQPGGSLRLSCAASGFTFSSYGMHWVRQAPGKGLEWVAFIRYDGSNKYYADSVKGRFTISRDNSKNTLYLQMNSLRAEDTAVYYCAKDRFGYYLDYWGQGTLVTVSS
VL: QPVLTQPSSVSVAPGETARIPCGGDDIETKSVHWYQQKPGQAPVLVIYDDDDRPSGIPERFFGSNSGNTATLSISRVEAGDEADYYCQVWDDNNDEWVFGGGTQLTVL
B3: KYK-2 antibody (antibody, V domains shown)
VH: QVQLVESGGGLVKPGGSLRLSCAASGFTFSSYGMHWVRQAPGKGLEWVAFIRYDGSNKYYADSVKGRFTISRDNSKNTLYLQMNSLRAEDTAVYYCAKDRGLGDGTYFDYWGQGTTVTVSS
VL: QSALTQPASVSGSPGQSITISCSGSSSNIGNNAVNWYQQLPGKAPKLLIYYDDLLPSGVSDRFSGSKSGTSAFLAISGLQSEDEADYYCAAWDDSLNGPVFGGGTKLTVL

Legend:
[1] = target: OMCP (WT OMCPBR, cowpox virus Brighton Red) (cowpox virus (Brighton Red strain)); experiment: printed as 'binding coefficients'; method not stated
human NKG2D = target: B1; experiment: as above

| Binder | Kd [1] [nM] | Kd (human NKG2D) [nM] |
| --- | --- | --- |
| B1 | 0.1 | – |
| B2 | – | 27 |
| B3 | – | 6 |

Source: patent US20190119345A1 (published 2019)
